Results reported in the Human Domainome abundance scans (Beltran et al. 2025).
± gives the uncertainty stated by the source.

B1: POU domain, class 2, transcription factor 1, residues 285 to 354; numbered along this chain, P14859 (parent)
chain: LEELEQFAKTFKQRRIKLGFTQGDVGLAMGKLYGNDFSQTTISRFEALNLSFKNMCKLKPLLEKWLNDAE

Variants of: B1
Assay: abundance fitness (aPCA) (normalised: wild type 0, dead -1); higher = more abundant; growth selection in yeast, the domain comes from the species named
Settings: Homo sapiens

Variant	abundance fitness
LEELEQFAKTFKQRRIKLGFTQGDVGLAMGKLEGNDFSQTTISRFEALNLSFKNMCKLKPLLEKWLNDAE [Y33E]	-0.047 ± 0.068
LEELEQFAKTFKQRRIKLGFTQGDVGLAMGKLKGNDFSQTTISRFEALNLSFKNMCKLKPLLEKWLNDAE [Y33K]	-0.053 ± 0.043
LEELEQFAKTFKQRRIKLGFTQGDVGLAMGKLRGNDFSQTTISRFEALNLSFKNMCKLKPLLEKWLNDAE [Y33R]	-0.103 ± 0.022
LEELEQFAKTFKQRRIKLGFTQGDVGLAMGKLTGNDFSQTTISRFEALNLSFKNMCKLKPLLEKWLNDAE [Y33T]	-0.061 ± 0.024
LEELEQFAKTFKQRRIKLGFTQGDVGLAMGKLSGNDFSQTTISRFEALNLSFKNMCKLKPLLEKWLNDAE [Y33S]	-0.039 ± 0.027
LEELEQFAKTFKQRRIKLGFTQGDVGLAMGKLGGNDFSQTTISRFEALNLSFKNMCKLKPLLEKWLNDAE [Y33G]	-0.097 ± 0.055
LEELEQFAKTFKQRRIKLGFTQGDVGLAMGKLWGNDFSQTTISRFEALNLSFKNMCKLKPLLEKWLNDAE [Y33W]	-0.122 ± 0.086
LEELEQFAKTFKQRRIKLGFTQGDVGLAMGKLFGNDFSQTTISRFEALNLSFKNMCKLKPLLEKWLNDAE [Y33F]	-0.031 ± 0.05
LEELEQFAKTFKQRRIKLGFTQGDVGLAMGKLAGNDFSQTTISRFEALNLSFKNMCKLKPLLEKWLNDAE [Y33A]	-0.045 ± 0.053
LEELEQFAKTFKQRRIKLGFTQGDVGLAMGKLLGNDFSQTTISRFEALNLSFKNMCKLKPLLEKWLNDAE [Y33L]	-0.008 ± 0.027
LEELEQFAKTFKQRRIKLGFTQGDVGLAMGKLVGNDFSQTTISRFEALNLSFKNMCKLKPLLEKWLNDAE [Y33V]	-0.151 ± 0.06
LEELEQFAKTFKQRRIKLGFTQGDVGLAMGKLHGNDFSQTTISRFEALNLSFKNMCKLKPLLEKWLNDAE [Y33H]	0.031 ± 0.023
LEELEQFAKTFKQRRIKLGFTQGDVGLAMGKLIGNDFSQTTISRFEALNLSFKNMCKLKPLLEKWLNDAE [Y33I]	-0.019 ± 0.039
LEELEQFAKTFKQRRIKLGFTQGDVGLAMGKLQGNDFSQTTISRFEALNLSFKNMCKLKPLLEKWLNDAE [Y33Q]	-0.067 ± 0.028
LEELEQFAKTFKQRRIKLGFTQGDVGLAMGKLPGNDFSQTTISRFEALNLSFKNMCKLKPLLEKWLNDAE [Y33P]	-0.104 ± 0.021
LEELEQFAKTFKQRRIKLGFTQGDVGLAMGKLMGNDFSQTTISRFEALNLSFKNMCKLKPLLEKWLNDAE [Y33M]	-0.11 ± 0.067
LEELEQFAKTFKQRRIKLGFTQGDVGLAMGKLNGNDFSQTTISRFEALNLSFKNMCKLKPLLEKWLNDAE [Y33N]	-0.075 ± 0.034
LEELEQFAKTFKQRRIKLGFTQGDVGLAMGKLCGNDFSQTTISRFEALNLSFKNMCKLKPLLEKWLNDAE [Y33C]	-0.04 ± 0.038
LEELEQFAKTFKQRRIKLGFTQGDVGLAMGKLDGNDFSQTTISRFEALNLSFKNMCKLKPLLEKWLNDAE [Y33D]	-0.125 ± 0.051
LEELEQFAKTFKQRRIKLGFTQGDVGLAMGKDYGNDFSQTTISRFEALNLSFKNMCKLKPLLEKWLNDAE [L32D]	-0.078 ± 0.093
LEELEQFAKTFKQRRIKLGFTQGDVGLAMGKEYGNDFSQTTISRFEALNLSFKNMCKLKPLLEKWLNDAE [L32E]	-0.005 ± 0.034
LEELEQFAKTFKQRRIKLGFTQGDVGLAMGKRYGNDFSQTTISRFEALNLSFKNMCKLKPLLEKWLNDAE [L32R]	-0.031 ± 0.03
LEELEQFAKTFKQRRIKLGFTQGDVGLAMGKAYGNDFSQTTISRFEALNLSFKNMCKLKPLLEKWLNDAE [L32A]	-0.006 ± 0.029
LEELEQFAKTFKQRRIKLGFTQGDVGLAMGKSYGNDFSQTTISRFEALNLSFKNMCKLKPLLEKWLNDAE [L32S]	-0.154 ± 0.18
LEELEQFAKTFKQRRIKLGFTQGDVGLAMGKNYGNDFSQTTISRFEALNLSFKNMCKLKPLLEKWLNDAE [L32N]	-0.054 ± 0.048
LEELEQFAKTFKQRRIKLGFTQGDVGLAMGKFYGNDFSQTTISRFEALNLSFKNMCKLKPLLEKWLNDAE [L32F]	-0.193 ± 0.23

Variant	abundance fitness
LEELEQFAKTFKQRRIKLGFTQGDVGLAMGKQYGNDFSQTTISRFEALNLSFKNMCKLKPLLEKWLNDAE [L32Q]	-0.012 ± 0.024
LEELEQFAKTFKQRRIKLGFTQGDVGLAMGKKYGNDFSQTTISRFEALNLSFKNMCKLKPLLEKWLNDAE [L32K]	0.031 ± 0.022
LEELEQFAKTFKQRRIKLGFTQGDVGLAMGKVYGNDFSQTTISRFEALNLSFKNMCKLKPLLEKWLNDAE [L32V]	-0.226 ± 0.19
LEELEQFAKTFKQRRIKLGFTQGDVGLAMGKTYGNDFSQTTISRFEALNLSFKNMCKLKPLLEKWLNDAE [L32T]	0.005 ± 0.022
LEELEQFAKTFKQRRIKLGFTQGDVGLAMGKHYGNDFSQTTISRFEALNLSFKNMCKLKPLLEKWLNDAE [L32H]	-0.004 ± 0.047
LEELEQFAKTFKQRRIKLGFTQGDVGLAMGKGYGNDFSQTTISRFEALNLSFKNMCKLKPLLEKWLNDAE [L32G]	-0.107 ± 0.027
LEELEQFAKTFKQRRIKLGFTQGDVGLAMHKLYGNDFSQTTISRFEALNLSFKNMCKLKPLLEKWLNDAE [G30H]	-0.068 ± 0.066
LEELEQFAKTFKQRRIKLGFTQGDVGLAMPKLYGNDFSQTTISRFEALNLSFKNMCKLKPLLEKWLNDAE [G30P]	-0.209 ± 0.044
LEELEQFAKTFKQRRIKLGFTQGDVGLAMLKLYGNDFSQTTISRFEALNLSFKNMCKLKPLLEKWLNDAE [G30L]	-0.015 ± 0.02
LEELEQFAKTFKQRRIKLGFTQGDVGLAMRKLYGNDFSQTTISRFEALNLSFKNMCKLKPLLEKWLNDAE [G30R]	0.01 ± 0.028
LEELEQFAKTFKQRRIKLGFTQGDVGLAMFKLYGNDFSQTTISRFEALNLSFKNMCKLKPLLEKWLNDAE [G30F]	0.014 ± 0.024
LEELEQFAKTFKQRRIKLGFTQGDVGLAMEKLYGNDFSQTTISRFEALNLSFKNMCKLKPLLEKWLNDAE [G30E]	-0.025 ± 0.053
LEELEQFAKTFKQRRIKLGFTQGDVGLAMIKLYGNDFSQTTISRFEALNLSFKNMCKLKPLLEKWLNDAE [G30I]	0.012 ± 0.026
LEELEQFAKTFKQRRIKLGFTQGDVGLAMTKLYGNDFSQTTISRFEALNLSFKNMCKLKPLLEKWLNDAE [G30T]	-0.028 ± 0.043
LEELEQFAKTFKQRRIKLGFTQGDVGLAMSKLYGNDFSQTTISRFEALNLSFKNMCKLKPLLEKWLNDAE [G30S]	-0.019 ± 0.026
LEELEQFAKTFKQRRIKLGFTQGDVGLAMMKLYGNDFSQTTISRFEALNLSFKNMCKLKPLLEKWLNDAE [G30M]	-0.024 ± 0.04
LEELEQFAKTFKQRRIKLGFTQGDVGLAMYKLYGNDFSQTTISRFEALNLSFKNMCKLKPLLEKWLNDAE [G30Y]	0.002 ± 0.045
LEELEQFAKTFKQRRIKLGFTQGDVGLAMNKLYGNDFSQTTISRFEALNLSFKNMCKLKPLLEKWLNDAE [G30N]	-0.113 ± 0.098
LEELEQFAKTFKQRRIKLGFTQGDVGLAMKKLYGNDFSQTTISRFEALNLSFKNMCKLKPLLEKWLNDAE [G30K]	-0.034 ± 0.074
LEELEQFAKTFKQRRIKLGFTQGDVGLAMWKLYGNDFSQTTISRFEALNLSFKNMCKLKPLLEKWLNDAE [G30W]	0.006 ± 0.024
LEELEQFAKTFKQRRIKLGFTQGDVGLAMQKLYGNDFSQTTISRFEALNLSFKNMCKLKPLLEKWLNDAE [G30Q]	0.102 ± 0.12
LEELEQFAKTFKQRRIKLGFTQGDVGLAMGKLYCNDFSQTTISRFEALNLSFKNMCKLKPLLEKWLNDAE [G34C]	-0.023 ± 0.081
LEELEQFAKTFKQRRIKLGFTQGDVGLAMGKLYINDFSQTTISRFEALNLSFKNMCKLKPLLEKWLNDAE [G34I]	-0.189 ± 0.12
LEELEQFAKTFKQRRIKLGFTQGDVGLAMGKLYNNDFSQTTISRFEALNLSFKNMCKLKPLLEKWLNDAE [G34N]	-0.041 ± 0.1
LEELEQFAKTFKQRRIKLGFTQGDVGLAMGKLYDNDFSQTTISRFEALNLSFKNMCKLKPLLEKWLNDAE [G34D]	-0.036 ± 0.096
LEELEQFAKTFKQRRIKLGFTQGDVGLAMGKLYLNDFSQTTISRFEALNLSFKNMCKLKPLLEKWLNDAE [G34L]	-0.151 ± 0.019

Variant	abundance fitness
LEELEQFAKTFKQRRIKLGFTQGDVGLAMGKLYANDFSQTTISRFEALNLSFKNMCKLKPLLEKWLNDAE [G34A]	-0.027 ± 0.025
LEELEQFAKTFKQRRIKLGFTQGDVGLAMGKLYRNDFSQTTISRFEALNLSFKNMCKLKPLLEKWLNDAE [G34R]	-0.027 ± 0.026
LEELEQFAKTFKQRRIKLGFTQGDVGLAMGKLYENDFSQTTISRFEALNLSFKNMCKLKPLLEKWLNDAE [G34E]	-0.01 ± 0.028
LEELEQFAKTFKQRRIKLGFTQGDVGLAMGKLYHNDFSQTTISRFEALNLSFKNMCKLKPLLEKWLNDAE [G34H]	-0.097 ± 0.075
LEELEQFAKTFKQRRIKLGFTQGDVGLAMGKLYKNDFSQTTISRFEALNLSFKNMCKLKPLLEKWLNDAE [G34K]	-0.039 ± 0.042
LEELEQFAKTFKQRRIKLGFTQGDVGLAMGKLYPNDFSQTTISRFEALNLSFKNMCKLKPLLEKWLNDAE [G34P]	0 ± 0.029
LEELEQFAKTFKQRRIKLGFTQGDVGLAMGKLYFNDFSQTTISRFEALNLSFKNMCKLKPLLEKWLNDAE [G34F]	-0.276 ± 0.1
LEELEQFAKTFKQRRIKLGFTQGDVGLAMGHLYGNDFSQTTISRFEALNLSFKNMCKLKPLLEKWLNDAE [K31H]	0.003 ± 0.062
LEELEQFAKTFKQRRIKLGFTQGDVGLAMGRLYGNDFSQTTISRFEALNLSFKNMCKLKPLLEKWLNDAE [K31R]	0.018 ± 0.02
LEELEQFAKTFKQRRIKLGFTQGDVGLAMGYLYGNDFSQTTISRFEALNLSFKNMCKLKPLLEKWLNDAE [K31Y]	-0.069 ± 0.13
LEELEQFAKTFKQRRIKLGFTQGDVGLAMGFLYGNDFSQTTISRFEALNLSFKNMCKLKPLLEKWLNDAE [K31F]	-0.126 ± 0.066
LEELEQFAKTFKQRRIKLGFTQGDVGLAMGALYGNDFSQTTISRFEALNLSFKNMCKLKPLLEKWLNDAE [K31A]	-0.027 ± 0.023
LEELEQFAKTFKQRRIKLGFTQGDVGLAMGQLYGNDFSQTTISRFEALNLSFKNMCKLKPLLEKWLNDAE [K31Q]	-0.034 ± 0.038
LEELEQFAKTFKQRRIKLGFTQGDVGLAMGNLYGNDFSQTTISRFEALNLSFKNMCKLKPLLEKWLNDAE [K31N]	-0.217 ± 0.11
LEELEQFAKTFKQRRIKLGFTQGDVGLAMGELYGNDFSQTTISRFEALNLSFKNMCKLKPLLEKWLNDAE [K31E]	0.058 ± 0.054
LEELEQFAKTFKQRRIKLGFTQGDVGLAMGLLYGNDFSQTTISRFEALNLSFKNMCKLKPLLEKWLNDAE [K31L]	-0.166 ± 0.026
LEELEQFAKTFKQRRIKLGFTQGDVGLAMGSLYGNDFSQTTISRFEALNLSFKNMCKLKPLLEKWLNDAE [K31S]	-0.068 ± 0.029
LEELEQFAKTFKQRRIKLGFTQGDVGLAMGPLYGNDFSQTTISRFEALNLSFKNMCKLKPLLEKWLNDAE [K31P]	-0.115 ± 0.022
LEELEQFAKTFKQRRIKLGFTQGDVGLAMGILYGNDFSQTTISRFEALNLSFKNMCKLKPLLEKWLNDAE [K31I]	-0.495 ± 0.31
LEELEQFAKTFKQRRIKLGFTQGDVGLAMGGLYGNDFSQTTISRFEALNLSFKNMCKLKPLLEKWLNDAE [K31G]	-0.066 ± 0.025
LEELEQFAKTFKQRRIKLGFTQGDVGLAMGCLYGNDFSQTTISRFEALNLSFKNMCKLKPLLEKWLNDAE [K31C]	-0.12 ± 0.047
LEELEQFAKTFKQRRIKLGFTQGDVGLAMGDLYGNDFSQTTISRFEALNLSFKNMCKLKPLLEKWLNDAE [K31D]	-0.029 ± 0.13
LEELEQFAKTFKQRRIKLGFTQGDVGLAMGMLYGNDFSQTTISRFEALNLSFKNMCKLKPLLEKWLNDAE [K31M]	-0.256 ± 0.057
LEELEQFAKTFKQRRIKLGFTQGDVGLAMGVLYGNDFSQTTISRFEALNLSFKNMCKLKPLLEKWLNDAE [K31V]	-0.126 ± 0.028
LEELEQFAKTFKQRRIKLGFTQGDVGLAMGWLYGNDFSQTTISRFEALNLSFKNMCKLKPLLEKWLNDAE [K31W]	-0.323 ± 0.034
